Reference: the supplement of paper PMC10567573
± gives the standard deviation.

Experiment: protein stability index of a GFP-peptide fusion (GPS, HEK-293T) (PSI 1-6); higher = more stable
Settings: c terminus: a fixed tail appended
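Also: 24-mer peptide tiles fused after GFP, lentivirally expressed, FACS-sorted into six equal bins by GFP/DsRed ratio, decoded by Illumina sequencing, PSI is the read-weighted mean bin number.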

Sequence	protein stability index (treatment: DMSO)	protein stability index (treatment: MLN4924 1 uM, 8 h)
AARLLRALSSFREESRFCDAHLVL [GAN]	2.41 ± 0.65	2.02 ± 0.27
ELFHTIDTHNTNNLDTEELCEYFS [NECAB1]	3.41 ± 0.28	3.47 ± 0.1
PDSHQKRPQHSHSNKKRPSLDGRD [ELOA2]	5.33 ± 0.17	5.14 ± 0.21
DALPGQSKRLAVPCKLEKMRILAH [TLE6]	2.39 ± 0.18	2.4 ± 0.24
SSPQGVQLDIASQSLDQEILLKVK [BCL2L13]	3.58 ± 0.4	3.83 ± 0.1
QDVDPVHNLIEQVSLGLGQPWHAV [FBXO33]	2.75 ± 0.17	2.55 ± 0.18
PLTLQSQPKEPQLTCDSAQKCHSI [ZSCAN9]	4.36 ± 0.29	4.39 ± 0.15
ECMLLVFGIDVKEVDPTGHSFVLV [MAGEA10]	2.82 ± 0.44	2.8 ± 0.66
GKEVVKQLEEGLKDTDLARVRRFQ [M1AP]	4.58 ± 0.35	4.62 ± 0.2
SAAQTDPTTGYRRLLRFSSQIHNN [LOXL2]	3.1 ± 0.2	3.23 ± 0.17
EQALGKGCGADSKKKRPPQPPEES [PLK2]	5.24 ± 0.41	5.36 ± 0.2
TCSNKKALLKFKPGAFIAGVPVQP [LPCAT4]	2.85 ± 0.4	3.03 ± 0.19
DKNLTEREVFNEIYPVWTYSYLVL [SLC19A2]	2.81 ± 0.64	2.65 ± 0.46
LWPFAWLQVAGLSEEQLQEPITGW [LPCAT4]	2.38 ± 0.18	2.5 ± 0.34
QEALDPGPFDQGSPFAQELLDDGQ [ELF3]	5.58 ± 0.24	5.32 ± 0.14
GDHERAIDFSPYLEPLGAPQAPAP [CEBPB]	4.56 ± 0.16	4.55 ± 0.24
PGFSTLSLADQMSLLQSAWMEILI [ESRRG]	2.27 ± 0.88	2.29 ± 0.4
RGHMPEWYTKSFGHLCAAEVVKIR [DLC1]	2.08 ± 0.23	2.42 ± 0.32
HEKERPEHKSLESLADGGSASPIK [FANCE]	5.49 ± 0.21	5.31 ± 0.25
YTSQITVEEGNVQTLLPAACLLQL [KLHL20]	2.28 ± 0.061	2.3 ± 0.25
ILTLTMISLFFLIIYMGSFMLMLL [CDS1]	2.4 ± 0.65	2.35 ± 0.39
RSGSPTVPIKPPCIPNGKENFSGG [CAMK2D]	4.2 ± 0.2	4.32 ± 0.21
VRRQRSADEQLHCAGKAKRSGGHA [ESR2]	4.51 ± 0.32	4.75 ± 0.13

Sequence	protein stability index (treatment: DMSO)	protein stability index (treatment: MLN4924 1 uM, 8 h)
EQLLARGYAVNVFDIQQGFDNPQV [NSDHL]	2.77 ± 0.19	3.54 ± 0.24
MEESKAKFENLCKLMKEILDKKVE [HSP90AB1]	3.34 ± 0.28	3.29 ± 0.19
GSAVARAVCKATTHEVMGPKKKHL [SNAP91]	4.58 ± 0.19	4.83 ± 0.17
MADADEGFGLAHTPLEPDAKDLPC [TBX5]	5.24 ± 0.27	5.13 ± 0.22
QCCQTEIIELRRTVNALEIELQAQ [KRT36]	2.95 ± 0.49	2.76 ± 0.4
DENLFTGEDLDELEEELNTLDLEE [ZC3H15]	5.18 ± 0.75	5.44 ± 0.21
TFSMPSDSHVSSCSEDWVGYQRKC [CD69]	3.64 ± 0.23	3.51 ± 0.23
MGPYNPDTCPEVGFFDVLGNDRRR [ACBD3]	4.08 ± 0.37	4.02 ± 0.35
EEDFDSEQLSVLASCLQELFKAHF [INTS3]	2.24 ± 0.078	2.49 ± 0.29
ASGSFPSQVTATSGNGDFGDWSAF [CLINT1]	3.4 ± 0.23	3.87 ± 0.12
KSIDPVLMAPTCVFLASKVEEFGV [CCNC]	1.92 ± 0.11	2.05 ± 0.34
SCDDLMGGGGLHSVGTYIIDLLTF [GFOD1]	2.75 ± 0.72	2.41 ± 0.29
KLKALHVDSAEYSCLKAIVLFTSD [NR2F2]	2.45 ± 0.36	2.27 ± 0.15
GHGIVGTIVKARDKLYHPECFMCS [PDLIM4]	2.45 ± 0.069	2.67 ± 0.21
MRRQEPLPPPPPPSRGGNQLPRPP [WAS]	4.8 ± 0.18	4.89 ± 0.17
VTHTLTMRQRISRVEESALRALRE [PPEF2]	3.5 ± 0.38	3.86 ± 0.012
ETPNSLNTTVIPNGSMAMGTVPGQ [LYSMD4]	4.43 ± 0.19	4.42 ± 0.23
RTMDIPRSVQNFRFFASSSLHHTS [ALDH8A1]	2.43 ± 0.15	2.62 ± 0.2
RFLDYEMQNSNECKRNFVAVYDGS [NETO1]	2.96 ± 0.24	3.31 ± 0.85
TEPDYKSKDWVFLNYTYKRFEGLT [STK38L]	1.92 ± 0.19	2.39 ± 0.59
MNEVKESLRSIEQKYKLFQQQQLT [SPACA9]	3.33 ± 0.13	3.2 ± 0.22
RAQLHVQGLLHEAGSTDDRIVVPQ [SPNS1]	4.15 ± 0.1	4.23 ± 0.22
TKLHDIDGVPHLILIASRDIAAGE [KMT5A]	2.36 ± 0.33	2.33 ± 0.25

Sequence	protein stability index (treatment: DMSO)	protein stability index (treatment: MLN4924 1 uM, 8 h)
NPTSAPGSRLAEFGAAGVNRLSIG [RSAD1]	3.87 ± 0.072	3.64 ± 0.28
HLDRTSVSSLSEVEEVDMAEEFEQ [ELOA2]	5.66 ± 0.34	5.48 ± 0.4
GPAHGPAQEEPWEKKESLGAAQEA [ZNF232]	5.6 ± 0.22	5.49 ± 0.16
YKQLGSAGEGLPQVYYFGPCGKYN [CSNK1G1]	3.05 ± 0.65	2.16 ± 0.2
QVLRNNPDALSDVGEVPYWVLEPV [ELOA2]	2.92 ± 0.52	3.34 ± 0.44
KASALNTKIRALQGSLENMSKLLK [CD207]	2.22 ± 0.33	2.26 ± 0.32
FRRGPAPQDQAGPGGAPRVASRNL [CLPTM1]	4.63 ± 0.17	4.25 ± 0.3
NSCINPIALYFVSKKFKNCFQSCL [EDNRA]	3.27 ± 0.34	–
YLELDRLVWRNSIRSSFISSLSFF [FBXO39]	2.86 ± 0.37	2.95 ± 0.45
DLIKHQRIHTEEKPYKCQQCDKRF [ZNF75A]	2.99 ± 0.23	3.31 ± 0.16
ELERKLREVMESAVGNSSGSGQNE [FBXO28]	4.11 ± 0.19	4.24 ± 0.38
VIRGLNTIPLFVQLLYSPIENIQR [CTNNB1]	2.76 ± 0.3	2.68 ± 0.4
DDEQYAWESSAGGSFTVRADHGEP [HSP90AB1]	5.14 ± 0.29	5.07 ± 0.12
VKCFNDLKAEELLLKIHEVSTVSH [CASP6]	2.23 ± 0.24	2.44 ± 0.16
IFMLCTLVLAIPLLLILVSYVHIL [OR10K2]	3.35 ± 0.26	3.18 ± 0.36
LSEVKPPPPPPPAQTFLFQGQPVV [TRADD]	3.89 ± 0.38	4.07 ± 0.2
RRCGKCFCDRCCSQKVPLRRMCFV [ZFYVE21]	2.31 ± 0.45	2.31 ± 0.39
LVDQSKKANSPLKGHERTVQYLQH [VPS39]	4 ± 0.3	3.85 ± 0.32
EAAEPPKTPPSSCDSTNAAIAKQA [KMT5A]	5.42 ± 0.29	5.34 ± 0.13
GSSYPTTTISYLPHAPPFAGGHPA [JUNB]	3.12 ± 0.14	3.09 ± 0.13
DSEHEPVYRAELVGELNGYLRDSS [PWWP2B]	4.46 ± 0.14	4.45 ± 0.16
KPGEGRSALFAGNEWRRPIIQFVE [TRIM29]	2.34 ± 0.35	2.86 ± 0.46
HTRSPYSTFYPPYHSPELTTPPGH [NEUROD6]	3.23 ± 0.14	3.18 ± 0.15

Sequence	protein stability index (treatment: DMSO)	protein stability index (treatment: MLN4924 1 uM, 8 h)
FSEALAEGAVKMGMPSSLAHRIAA [PYCR3]	3.12 ± 0.42	3.06 ± 0.52
APAGDKGFQPPSPSLRPRPASSIS [DMRTC1]	4.61 ± 0.15	4.57 ± 0.26
RAYLFNSVVNVGCGPAEERVLLTG [YPEL3]	2.72 ± 0.56	2.87 ± 0.71
DGQYLGVAFRGLKGKKLYPVVSAV [SPSB4]	2.08 ± 0.38	2.51 ± 0.49
VGITVLNLCALSVDRYRAVASWSR [EDNRA]	2.86 ± 0.66	2.87 ± 0.6
EEAKGLLDKVKDGGYRPAEDKIFP [ZBED1]	4.84 ± 0.3	4.78 ± 0.41
FMYSGVENKQVVIIHHMRLQAKAL [INTS4]	2.48 ± 0.33	2.52 ± 0.63
ETVKLFICELVMALDYLQNQRIIH [STK32A]	3.39 ± 0.55	3.08 ± 0.27
LPSERWNPTQNVRTILLSVISLLN [CDC34]	3.53 ± 0.2	3.58 ± 0.33
RPVSCSGRDALLDQIRQGIQLKSV [WASL]	5.08 ± 0.56	4.95 ± 0.21
YRVWKKMLASVESVPFSFDPNTAA [TRIM35]	2.06 ± 0.28	2.3 ± 0.14
GLPFILRPTSCWQLDWDELETNQQ [M1AP]	2.62 ± 0.056	2.67 ± 0.24
KYDPTIEDSYRKQVEVDAQQCMLE [RAP1B]	4.55 ± 0.12	4.66 ± 0.11
LPHQSHRQRSSLAKINIVYQELNY [SCNN1D]	2.54 ± 0.23	2.54 ± 0.3
VYVSNMTDKLVTPGKYFSAAEYHA [IQUB]	2.14 ± 0.47	1.96 ± 0.15
FMRTDNTCVNLLLEASNYQMMPYM [KLHL13]	2.46 ± 0.58	2.24 ± 0.36
SETPQETYRKVMNWKETLVFPPEV [STK38L]	3.61 ± 0.53	3.7 ± 0.3
GLQNCVYPWDENHCKEKRKTSLLD [NETO1]	3.24 ± 0.25	3.52 ± 0.28
TRHEGSFQVPVLCAVMNVVFITIL [CD69]	2.76 ± 0.55	2.63 ± 0.58
LKEMYDADLLEEEVIISWSEKASK [EIF5]	3.33 ± 0.45	3.88 ± 0.44
TSRRARASKKTAQPWVEVVLALRN [MFSD9]	2.33 ± 0.12	2.58 ± 0.19
